Laboratory results reported in patent US20200102553A1.

Biological target: membrane-tethered Cre fusion: signal peptide, flag tag, CD8 transmembrane domain, GzB cleavage site, Cre recombinase (UniProt P01732)
Experiment: cell-based or functional assay

- reporter inversion by released Cre, qPCR: 3 fold
Substance: Granzyme B (GzB) (from UniProt P10144 21-247) (enzyme)
